Earlier results as cited in patent US5624831A, “Immobilized acetylcholinesterase stabilized by a film of gelatin or albumin containing trehalose” (priority 1994, dated 1997).

Test system: acetylcholinesterase extracted from the torpedo fish
Settings: kept dry at 4° C. for longer than 7 days

B1: acetylcholinesterase extracted from the torpedo fish: acetylcholinesterase extracted from the torpedo fish (protein, UniProt P04058 22-564, looked up)
Acetylcholinesterase: DDHSELLVNTKSGKVMGTRVPVLSSHISAFLGIPFAEPPVGNMRFRRPEPKKPWSGVWNASTYPNNCQQYVDEQFPGFSGSEMWNPNREMSEDCLYLNIWVPSPRPKSTTVMVWIYGGGFYSGSSTLDVYNGKYLAYTEEVVLVSLSYRVGAFGFLALHGSQEAPGNVGLLDQRMALQWVHDNIQFFGGDPKTVTIFGESAGGASVGMHILSPGSRDLFRRAILQSGSPNCPWASVSVAEGRRRAVELGRNLNCNLNSDEELIHCLREKKPQELIDVEWNVLPFDSIFRFSFVPVIDGEFFPTSLESMLNSGNFKKTQILLGVNKDEGSFFLLYGAPGFSKDSESKISREDFMSGVKLSVPHANDLGLDAVTLQYTDWMDDNNGIKNRDGLDDIVGDHNVICPLMHFVNKYTKFGNGTYLYFFNHRASNLVWPEWMGVIHGYEIEFVFGLPLVKELNYTAEEEALSRRIMHYWATFAKTGNPNEPHSQESKWPLFTTKEQKFIDLNTEPMKVHQRLRVQMCVFWNQFLPKLLNATACDGELSS
- loss of enzymatic activity (in words): looses normally all its enzymatic activity
